Consider 1 molecule from patent US20070218463A1 (CANAG DIAGNOSTICS, published 2007).

In this assay the target is T1, Cathepsin L (Calbiochem) (UniProt P07711 114-333, limits assumed).
T1 construct: Bought enzyme
As to the kind of experiment: complex binding, 2 ug SCCA protein mixed with cathepsin, 37 C 30 min, SDS-PAGE. The method, then:
Complex binding of SCCA to substrates was performed by mixing 2 μg of SCCA-protein with 0.5 μg of Cathepsin G (Biodesign Int.) or 0.5 μg of […] Cathepsin L (Calbiochem) in 1×PBS buffer in a total volume of 4.5 μl. Samples were incubated at 37° C. for 30 minutes. To each sample, 0.5 μl of 10× Complex-buffer (20% SDS, 140 mM Mercaptoethanol, bromophenolblue) was added. Samples were incubated for 3 minutes at 95° C. and analyzed on a 12.5% SDS-PAGE-gel. The SCCA1/A2 fusion protein forms a complex with Cathepsin G but not with Cathepsin L showing that the fusion protein is functional and has the substrate specificity of SCCA2 (FIG. 8).

T1 sequence (P07711 114-333 limits assumed): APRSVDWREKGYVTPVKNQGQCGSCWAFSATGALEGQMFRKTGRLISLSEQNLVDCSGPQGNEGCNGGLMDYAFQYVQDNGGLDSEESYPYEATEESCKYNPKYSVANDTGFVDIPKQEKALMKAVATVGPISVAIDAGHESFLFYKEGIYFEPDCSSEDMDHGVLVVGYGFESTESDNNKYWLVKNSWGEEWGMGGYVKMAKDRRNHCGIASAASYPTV

B1: SCCA1/SCCA2 fusion protein (other)
chain: MNSLSEANTKFMFDLFQQFRKSKENNIFYSPISITSALGMVLLGAKDNTAQQIKKVLHFDQVTENTTGKAATYHVDRSGNVHHQFQKLLTEFNKSTDAYELKIANKLFGEKTYLFLQEYLDAIKKFYQTSVESVDFANAPEESRKKINSWVESQTNEKIKNLIPEGNIGSNTTLVLVNAIYFKGQWEKKFNKEDTKEEKFWPNKNTYKSIQMMRQYTSFHFASLEDVQAKVLEIPYKGKDLSMIVLLPNEIDGLQKLEEKLTAEKLMEWTSLQNMRETCVDLHLPRFKMEESYDLKDTLRTMGMVNIFNGDADLSGMTWSHGLSVSKVLHKAFVEVTEEGVEAAAATAVVVVELSSPSTNEEFCCNHPFLFFIRQNKTNSILFYGRFSSP
notes: Recombinant serpin fusion (exons 2-7 of SCCA1 fused to exon 8 of SCCA2); also called SCCA1/A2; SCCA1/A2 fusion protein
Regarding B1, the binding result is “no binding”.
